Results as given in publication PMC7892883, “Transcription activation by a sliding clamp” (Nature Communications, 2021).

B1: bacteriophage T4 gp33 (coactivator) (natural protein)
chain: MTQFSLNDIRPVDETGLSEKELSIKKEKDEIAKLLDRQENGFIIEKMVEEFGMSYLEATTAFLEENSIPETQFAKFIPSGIIEKIQSEAIDENLLRPSVVRCEKTNTLDFLL
notes: source: E. coli BL21(DE3), pET28a-NH-gp33, purified (Ni-NTA, Mono Q, Superdex 200)
B2: T4 late promoter EMSA scaffold (dsDNA)
DNA 1: CTAATAAAGAGCTCAGCACTATTACTGAGAGTATAAATACTCCTGATACTGAAGCAGCCGGACT
DNA 2: AGTCCGGCTGCTTCAGTATCAGGAGTATTTATACTCTCAGTAATAGTGCTGAGCTCTTTATTAG
B3: bacteriophage T4 gp55 (promoter specificity factor) (natural protein, UniProt P04524 1-185, looked up)
chain: MSETKPKYNYVNNKELLQAIIDWKTELANNKDPNKVVRQNDTIGLAIMLIAEGLSKRFNFSGYTQSWKQEMIADGIEASIKGLHNFDETKYKNPHAYITQACFNAFVQRIKKERKEVAKKYSYFVHNVYDSRDDDMVALVDETFIQDIYDKMTHYEESTYRTPGAEKKSVVDDSPSLDFLYEAND
notes: also called full-length gp55; wild-type protein

What was measured:
[1] = molecular target: T1, E. coli RNA polymerase β′ subunit (E. coli, UniProt P0A8T7 1-1407); test: cryo-EM structure; 0.8 uM E. coli RNAP incubated with 0.8 uM gp55, 0.8 uM gp33 and 0.8 uM gp45 homotrimer 10 min on ice, then with nucleic acid scaffold, gp44/gp62 complex, gp32 and dATP 20 min at 30 °C in transcription buffer; 3D classification gave RPo-gp55 (3.6 Å) and TAC-gp45 (4.5 Å); promoter DNA present; conditions: both partners purified
T1 construct: RNA polymerase β′ subunit, E. coli; Stood in the structures as a subunit of RNAP core; also called RNAP β′ subunit; source: E. coli BL21(DE3) with plasmid pIA900, purified as part of RNAP core enzyme

[2] = molecular target: T2, E. coli RNA polymerase β subunit (E. coli, UniProt P0A8V2 1-1342); test: as above; conditions: both partners purified
T2 construct: RNA polymerase β subunit, E. coli; holds the β flap with the flap tip helix (FTH); Stood in the structures as a subunit of RNAP core; also called RNAP β subunit; source: E. coli BL21(DE3) with plasmid pIA900, purified as part of RNAP core enzyme

[3] = molecular target: E. coli RNA polymerase core;gp55 H154X (C-terminal region truncated) (Escherichia coli;bacteriophage T4, UniProt P0A7Z4;P0A8V2;P0A8T7;P0A800;P04524 1-329;1-1342;1-1407;1-91;1-153, |); test: EMSA; heparin 0.1 mg/ml challenge; forms RPo as effectively as full-length gp55; EMSA: 0.4 uM gp55, 0.2 uM RNAP, 0.2 uM DNA in 10 mM HEPES pH 7.5, 50 mM KCl, 5% glycerol, 0.1 mg/ml heparin; DNA 20 min at 37 C, heparin 1 min at 22 C; 5% PAGE; conditions: protein: recombinant;recombinant; tags: beta' C-terminal His tag (stated for pull-down);none stated; chain copies: 2;1;1;1;1; label: none (gel stained); blunt

| Binder | binding result [1] | binding result [2] | binding result [3] |
| --- | --- | --- | --- |
| B1 | binds | binds |  |
| B2 |  |  | binds |
| B3 | binds |  |  |
